From US20240400638A1, “COMBINATION OF RELAXIN AND VASOPRESSIN ANALOGUES FOR TREATMENT OF RENAL DISORDERS OR CONDITIONS” (River 2 Renal Corp., priority 2021, published 2024)
Each block holds one binder with its values, some of them ahead of it. Numbered stars: 1 amine (or outer) side, 2 acyl side, 3 side chain; on linkers, the order of the positions; unused ones are H or OH. Square brackets hold non-standard residues; d marks the D form. Side chains are listed from the residue outwards. * marks the point of attachment. TTDS = 4-[3-[2-[2-(3-aminopropoxy)ethoxy]ethoxy]propylamino]-4-oxo-butanoyl; Trp(5-Cl) = N[C@@H](Cc1c[nH]c2ccc(Cl)cc12)C(=O)O; γGlu = O=C(O)[C@H](CCC(=O)[*:2])N[*:1]; Stearoyl = CCCCCCCCCCCCCCCCCC(=O)*; Palmitoyl = CCCCCCCCCCCCCCCC(=O)*; αMeK = C[C@](N)(CCCCN)C(=O)O; AEEA = NCCOCCOCC(=O)O; Aib = CC(C)(N)C(=O)O

Molecular target: T1, human RXFP1 (human, UniProt Q9HBX9 1-757)
T1 sequence (looked up): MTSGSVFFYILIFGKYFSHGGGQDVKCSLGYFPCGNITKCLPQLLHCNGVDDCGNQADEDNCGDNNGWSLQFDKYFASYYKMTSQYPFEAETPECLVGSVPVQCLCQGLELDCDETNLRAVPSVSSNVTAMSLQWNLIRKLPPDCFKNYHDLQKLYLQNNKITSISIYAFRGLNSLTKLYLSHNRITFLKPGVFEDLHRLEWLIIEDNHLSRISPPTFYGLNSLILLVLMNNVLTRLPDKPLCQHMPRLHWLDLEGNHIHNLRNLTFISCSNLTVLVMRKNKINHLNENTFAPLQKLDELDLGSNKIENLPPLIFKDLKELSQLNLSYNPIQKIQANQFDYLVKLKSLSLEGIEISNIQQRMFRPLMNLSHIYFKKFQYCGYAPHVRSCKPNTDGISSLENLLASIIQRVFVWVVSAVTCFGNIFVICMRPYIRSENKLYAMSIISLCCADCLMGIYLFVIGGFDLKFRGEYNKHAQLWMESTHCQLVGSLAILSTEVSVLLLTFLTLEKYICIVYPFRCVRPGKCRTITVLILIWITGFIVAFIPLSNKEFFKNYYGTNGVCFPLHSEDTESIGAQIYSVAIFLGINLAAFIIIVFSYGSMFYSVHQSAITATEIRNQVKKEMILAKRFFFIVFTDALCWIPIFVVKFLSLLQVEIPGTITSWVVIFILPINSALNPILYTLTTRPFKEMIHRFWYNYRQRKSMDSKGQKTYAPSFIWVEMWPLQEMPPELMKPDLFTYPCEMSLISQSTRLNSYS
Test: cell-based or functional assay

EC50 (nM), OVCAR 5 cells (cAMP): 0.09 nM
EMax, OVCAR 5 cells (cAMP): 99%
Binder: Ac-LEGREKVRAK(Ac)I[Aib][Aib]EGK([TTDS-TTDS-TTDS-TTDS-γGlu-γGlu-γGlu-Stearoyl])STFS[Aib]RKK(Ac)-NH2 [Relaxin peptide analogue of SEQ ID NO: 59]

EC50 (nM), OVCAR 5 cells (cAMP): 0.16 nM
EMax, OVCAR 5 cells (cAMP): 98%
Binder: Ac-K(Ac)EGREKVRAK(Ac)I[Aib][Aib]EGK([TTDS-TTDS-TTDS-γGlu-γGlu-γGlu-Palmitoyl])STFS[αMeK]RAK(Ac)-NH2 [Relaxin peptide analogue of SEQ ID NO: 81]

EC50 (nM), OVCAR 5 cells (cAMP): 0.27 nM
EMax, OVCAR 5 cells (cAMP): 95%
Binder: Ac-LEGREKVRAK(Ac)I[Aib][Aib]EGK([TTDS-TTDS-γGlu-γGlu-γGlu-Stearoyl])STWS[Aib]RKK(Ac)-NH2 [Relaxin peptide analogue of SEQ ID NO: 6]

EC50 (nM), OVCAR 5 cells (cAMP): 1.45 nM
EMax, OVCAR 5 cells (cAMP): 97%
Binder: Ac-LEGREKVRAK(Ac)I[Aib][Aib]EGK([TTDS-TTDS-TTDS-γGlu-γGlu-γGlu-Palmitoyl])SQWS[Aib]RKK(Ac)-NH2 [Relaxin peptide analogue of SEQ ID NO: 63]

EC50 (nM), OVCAR 5 cells (cAMP): 6.31 nM
EMax, OVCAR 5 cells (cAMP): 93%
Binder: Ac-LEGREKVRAK(Ac)I[Aib][Aib]EGK([TTDS-TTDS-TTDS-γGlu-γGlu-γGlu-Palmitoyl])STWK(Ac)[Aib]RAK(Ac)-NH2 [Relaxin peptide analogue of SEQ ID NO: 66]

EC50 (nM), OVCAR 5 cells (cAMP): 0.11 nM
EMax, OVCAR 5 cells (cAMP): 98%
Binder: Ac-LEGRERVRAK(Ac)I[Aib][Aib]EGK([TTDS-TTDS-TTDS-TTDS-γGlu-γGlu-γGlu-Palmitoyl])STFS[Aib]RRK(Ac)-NH2 [Relaxin peptide analogue of SEQ ID NO: 77]

EC50 (nM), OVCAR 5 cells (cAMP): 0.1 nM
EMax, OVCAR 5 cells (cAMP): 97%
Binder: Ac-LEGREKVRAK(Ac)I[Aib][Aib]EGK([TTDS-TTDS-TTDS-γGlu-γGlu-γGlu-Stearoyl])STFS[Aib]RKK(Ac)-NH2 [Relaxin peptide analogue of SEQ ID NO: 61]

EC50 (nM), OVCAR 5 cells (cAMP): 0.78 nM
EMax, OVCAR 5 cells (cAMP): 97%
Binder: Ac-LEGREKVRAK(Ac)I[Aib][Aib]EGK([TTDS-TTDS-TTDS-γGlu-γGlu-γGlu-Palmitoyl])STWS[Aib]RK(Ac)R-NH2 [Relaxin peptide analogue of SEQ ID NO: 69]

EC50 (nM), OVCAR 5 cells (cAMP): 0.18 nM
EMax, OVCAR 5 cells (cAMP): 96%
Binder: Ac-LEGRERVRAK(Ac)I[Aib][Aib]EGK([TTDS-TTDS-TTDS-γGlu-γGlu-γGlu-Palmitoyl])STFS[Aib]RRK(Ac)-NH2 [Relaxin peptide analogue of SEQ ID NO: 76]

EC50 (nM), OVCAR 5 cells (cAMP): 0.52 nM
EMax, OVCAR 5 cells (cAMP): 95%
Binder: Ac-LEGREKVRAK(Ac)I[Aib][Aib]EGK([TTDS-TTDS-TTDS-γGlu-γGlu-γGlu-Palmitoyl])SRWS[Aib]RKK(Ac)-NH2 [Relaxin peptide analogue of SEQ ID NO: 64]

EC50 (nM), OVCAR 5 cells (cAMP): 0.48 nM
EMax, OVCAR 5 cells (cAMP): 95%
Binder: Ac-LEGRERVRAK(Ac)I[Aib][Aib]EGK([TTDS-TTDS-TTDS-γGlu-γGlu-γGlu-Palmitoyl])STWS[Aib]RKK(Ac)-NH2 [Relaxin peptide analogue of SEQ ID NO: 67]

EC50 (nM), OVCAR 5 cells (cAMP): 0.07 nM
EMax, OVCAR 5 cells (cAMP): 95%
Binder: Ac-LEGREKVRAK(Ac)I[Aib][Aib]EGK([TTDS-TTDS-TTDS-γGlu-γGlu-γGlu-Stearoyl])STFS[αMeK]RAK(Ac)-NH2 [Relaxin peptide analogue of SEQ ID NO: 7]

EC50 (nM), OVCAR 5 cells (cAMP): 0.19 nM
EMax, OVCAR 5 cells (cAMP): 97%
Binder: Ac-LEGRERVRAK(Ac)I[Aib][Aib]EGK([TTDS-TTDS-TTDS-TTDS-γGlu-γGlu-γGlu-Palmitoyl])STWS[Aib]RRK(Ac)-NH2 [Relaxin peptide analogue of SEQ ID NO: 75]

EC50 (nM), OVCAR 5 cells (cAMP): 0.54 nM
EMax, OVCAR 5 cells (cAMP): 94%
Binder: Ac-LEGREKVRAK(Ac)I[Aib]IEGK([TTDS-TTDS-TTDS-TTDS-γGlu-γGlu-γGlu-Palmitoyl])STWS[Aib]RKK(Ac)-NH2 [Relaxin peptide analogue of SEQ ID NO: 74]

EC50 (nM), OVCAR 5 cells (cAMP): 0.2 nM
EMax, OVCAR 5 cells (cAMP): 95%
Binder: Ac-LEGREKVRAK(Ac)I[Aib][Aib]EGK([TTDS-TTDS-TTDS-γGlu-γGlu-γGlu-Palmitoyl])SKWS[Aib]RAK-NH2 [Relaxin peptide analogue of SEQ ID NO: 73]

EC50 (nM), OVCAR 5 cells (cAMP): 1.5 nM
EMax, OVCAR 5 cells (cAMP): 99%
Binder: Ac-LEGREKVRAK(Ac)I[Aib][Aib]EGK([TTDS-TTDS-TTDS-γGlu-γGlu-γGlu-Palmitoyl])STWS[Aib]RKK(Ac)-NH2 [Relaxin peptide analogue of SEQ ID NO: 1]

EC50 (nM), OVCAR 5 cells (cAMP): 0.63 nM
EMax, OVCAR 5 cells (cAMP): 93%
Binder: Ac-LEGRERVRAK(Ac)I[Aib][Aib]EGK([TTDS-TTDS-TTDS-γGlu-γGlu-γGlu-Palmitoyl])ST[Trp(5-Cl)]S[Aib]RRK(Ac)-NH2 [Relaxin peptide analogue of SEQ ID NO: 80]

EC50 (nM), OVCAR 5 cells (cAMP): 0.36 nM
EMax, OVCAR 5 cells (cAMP): 95%
Binder: Ac-LEGREKVRAK(Ac)I[Aib][Aib]EGK([TTDS-TTDS-TTDS-γGlu-γGlu-γGlu-Palmitoyl])STWS[Aib]RAK-NH2 [Relaxin peptide analogue of SEQ ID NO: 71]

EC50 (nM), OVCAR 5 cells (cAMP): 1.19 nM
EMax, OVCAR 5 cells (cAMP): 95%
Binder: Ac-LEGREKVRK(Ac)QI[Aib][Aib]EGK([TTDS-TTDS-TTDS-γGlu-γGlu-γGlu-Palmitoyl])STWS[Aib]RKK(Ac)-NH2 [Relaxin peptide analogue of SEQ ID NO: 65]

EC50 (nM), OVCAR 5 cells (cAMP): 9.1 nM
EMax, OVCAR 5 cells (cAMP): 85%
B1: Relaxin peptide analogue of SEQ ID NO: 5 (peptide)
peptide: Ac-LEGREKVRAK(Ac)I[Aib][Aib]EGK([AEEA-AEEA-AEEA-AEEA-γGlu-γGlu-γGlu-Palmitoyl])STWS[Aib]RKK(Ac)-NH2
SMILES: CCCCCCCCCCCCCCCC(=O)N[C@@H](CCC(=O)N[C@@H](CCC(=O)N[C@@H](CCC(=O)NCCOCCOCC(=O)NCCOCCOCC(=O)NCCOCCOCC(=O)NCCOCCOCC(=O)NCCCC[C@H](NC(=O)CNC(=O)[C@H](CCC(=O)O)NC(=O)C(C)(C)NC(=O)C(C)(C)NC(=O)[C@@H](NC(=O)[C@H](CCCCNC(C)=O)NC(=O)[C@H](C)NC(=O)[C@H](CCCNC(=N)N)NC(=O)[C@@H](NC(=O)[C@H](CCCCN)NC(=O)[C@H](CCC(=O)O)NC(=O)[C@H](CCCNC(=N)N)NC(=O)CNC(=O)[C@H](CCC(=O)O)NC(=O)[C@H](CC(C)C)NC(C)=O)C(C)C)[C@@H](C)CC)C(=O)N[C@@H](CO)C(=O)N[C@H](C(=O)N[C@@H](Cc1c[nH]c2ccccc12)C(=O)N[C@@H](CO)C(=O)NC(C)(C)C(=O)N[C@@H](CCCNC(=N)N)C(=O)N[C@@H](CCCCN)C(=O)N[C@@H](CCCCNC(C)=O)C(N)=O)[C@@H](C)O)C(=O)O)C(=O)O)C(=O)O

EC50 (nM), OVCAR 5 cells (cAMP): 1.34 nM
EMax, OVCAR 5 cells (cAMP): 94%
Binder: Ac-LEGREKVRAK(Ac)I[Aib]IEGK([TTDS-TTDS-TTDS-γGlu-γGlu-γGlu-Palmitoyl])STWS[Aib]RKK(Ac)-NH2 [Relaxin peptide analogue of SEQ ID NO: 70]

EC50 (nM), OVCAR 5 cells (cAMP): 0.18 nM
EMax, OVCAR 5 cells (cAMP): 99%
Binder: Ac-LEGREKVRAK(Ac)I[Aib][Aib]EGK([TTDS-TTDS-TTDS-TTDS-γGlu-γGlu-γGlu-Palmitoyl])STFS[αMeK]RAK(Ac)-NH2 [Relaxin peptide analogue of SEQ ID NO: 78]

EC50 (nM), OVCAR 5 cells (cAMP): 0.6 nM
EMax, OVCAR 5 cells (cAMP): 98%
Binder: Ac-LEGREKVRAK(Ac)I[Aib][Aib]EGK([TTDS-TTDS-TTDS-γGlu-γGlu-γGlu-γGlu-Palmitoyl])STWS[Aib]RKK(Ac)-NH2 [Relaxin peptide analogue of SEQ ID NO: 62]

EC50 (nM), OVCAR 5 cells (cAMP): 0.56 nM
EMax, OVCAR 5 cells (cAMP): 91%
Binder: Ac-LEGREKVRAK(Ac)I[Aib][Aib]EGK([TTDS-TTDS-TTDS-γGlu-γGlu-γGlu-Palmitoyl])STF[Aib]RRAK(Ac)-NH2 [Relaxin peptide analogue of SEQ ID NO: 72]

EC50 (nM), OVCAR 5 cells (cAMP): 0.15 nM
EMax, OVCAR 5 cells (cAMP): 95%
Binder: Ac-LEGREKVRAK(Ac)I[Aib][Aib]EGK([TTDS-TTDS-γGlu-γGlu-γGlu-Stearoyl])STFS[Aib]RKK(Ac)-NH2 [Relaxin peptide analogue of SEQ ID NO: 60]

EC50 (nM), OVCAR 5 cells (cAMP): 0.88 nM
EMax, OVCAR 5 cells (cAMP): 98%
Binder: Ac-LEGREKVRAK(Ac)I[Aib][Aib]EGK([TTDS-TTDS-TTDS-γGlu-γGlu-γGlu-Palmitoyl])STWS[Aib]RK(Ac)K-NH2 [Relaxin peptide analogue of SEQ ID NO: 68]

EC50 (nM), OVCAR 5 cells (cAMP): 0.45 nM
EMax, OVCAR 5 cells (cAMP): 95%
Binder: Ac-LEGREKVRAK(Ac)I[Aib][Aib]EGK([TTDS-TTDS-TTDS-γGlu-γGlu-γGlu-Palmitoyl])SKFS[Aib]RKK(Ac)-NH2 [Relaxin peptide analogue of SEQ ID NO: 79]
